Patent publication US20240287172A1 (SCIRHOM, published 2024)
Where a chain is given by its changes, count along the chain named.

T1: hiR2-FL-D535-T7 (deletion of D535) (human, UniProt Q6PJF5 1-856)
T1 construct: single amino acid deletion
T1 sequence: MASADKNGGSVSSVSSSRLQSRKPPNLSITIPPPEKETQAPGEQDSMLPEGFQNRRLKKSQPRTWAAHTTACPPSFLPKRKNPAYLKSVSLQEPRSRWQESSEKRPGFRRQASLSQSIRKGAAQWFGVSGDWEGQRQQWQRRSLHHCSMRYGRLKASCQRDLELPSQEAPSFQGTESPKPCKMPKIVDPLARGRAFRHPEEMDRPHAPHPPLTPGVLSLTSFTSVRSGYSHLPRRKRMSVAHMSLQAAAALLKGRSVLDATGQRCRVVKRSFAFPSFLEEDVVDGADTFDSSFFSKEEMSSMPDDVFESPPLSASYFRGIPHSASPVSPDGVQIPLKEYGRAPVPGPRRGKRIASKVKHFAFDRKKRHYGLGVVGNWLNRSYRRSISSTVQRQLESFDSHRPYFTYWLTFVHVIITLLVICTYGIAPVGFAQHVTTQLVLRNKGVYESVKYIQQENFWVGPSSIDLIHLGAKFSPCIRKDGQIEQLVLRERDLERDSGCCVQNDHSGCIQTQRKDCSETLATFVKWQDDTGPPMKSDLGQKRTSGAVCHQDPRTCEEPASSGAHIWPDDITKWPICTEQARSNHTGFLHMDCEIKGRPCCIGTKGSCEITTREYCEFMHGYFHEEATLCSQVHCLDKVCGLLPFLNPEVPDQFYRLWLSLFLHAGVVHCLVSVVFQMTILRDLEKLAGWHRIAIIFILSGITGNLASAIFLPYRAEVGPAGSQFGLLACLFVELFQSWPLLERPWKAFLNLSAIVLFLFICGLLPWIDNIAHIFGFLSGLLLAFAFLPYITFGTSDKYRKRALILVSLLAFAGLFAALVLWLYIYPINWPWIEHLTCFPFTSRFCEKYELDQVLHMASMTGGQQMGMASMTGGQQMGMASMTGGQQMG

T2: hiR2-FL-M534-T7 (deletion of M534) (human, UniProt Q6PJF5 1-856)
T2 construct: single amino acid deletion
T2 sequence: T1 sequence with M534D

T3: hiR2-FL-L539A-T7 (human, UniProt Q6PJF5 1-856)
T3 construct: on MEF-DKO cells
T3 sequence: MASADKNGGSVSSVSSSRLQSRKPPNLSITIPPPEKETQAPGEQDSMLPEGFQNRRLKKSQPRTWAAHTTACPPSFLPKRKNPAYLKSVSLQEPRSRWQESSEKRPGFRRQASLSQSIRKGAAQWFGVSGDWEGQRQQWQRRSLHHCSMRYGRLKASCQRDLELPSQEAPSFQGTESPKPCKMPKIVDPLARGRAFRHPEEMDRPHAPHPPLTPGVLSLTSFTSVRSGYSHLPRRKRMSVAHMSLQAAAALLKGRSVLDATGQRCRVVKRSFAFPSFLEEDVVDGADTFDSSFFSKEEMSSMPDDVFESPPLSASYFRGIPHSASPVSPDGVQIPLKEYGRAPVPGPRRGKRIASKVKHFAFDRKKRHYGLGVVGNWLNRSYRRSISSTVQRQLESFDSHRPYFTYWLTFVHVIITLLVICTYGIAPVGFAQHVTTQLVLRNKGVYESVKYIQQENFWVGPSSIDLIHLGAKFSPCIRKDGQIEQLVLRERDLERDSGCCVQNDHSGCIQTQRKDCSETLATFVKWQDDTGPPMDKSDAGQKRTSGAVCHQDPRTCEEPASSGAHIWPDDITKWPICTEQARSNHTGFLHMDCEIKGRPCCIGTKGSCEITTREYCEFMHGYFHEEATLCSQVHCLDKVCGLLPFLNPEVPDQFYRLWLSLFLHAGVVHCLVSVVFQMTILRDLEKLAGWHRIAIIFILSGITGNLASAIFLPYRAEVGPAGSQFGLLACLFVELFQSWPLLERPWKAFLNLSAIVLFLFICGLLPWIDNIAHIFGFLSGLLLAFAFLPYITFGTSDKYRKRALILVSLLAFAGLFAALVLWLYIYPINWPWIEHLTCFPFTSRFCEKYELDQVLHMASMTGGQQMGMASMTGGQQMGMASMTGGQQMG

B1: antibody 16 (antibody, V domains shown)
VH: QVTLKESGPGILQPSQTLSLTCSFSGFSLSTFALGVGWIRQPSGRGLEWLAHIWWDDDKYYNPALKSRLTISKDTSKNHVFLKIANVDTADTATYYCARITTYYYGMDYWGQGTSVTVSS
VL: DIVLSQSPATLSVTPGDSVSLFCRASQSIGNHLHWYQQESHASPRLLIKYASQSISGIPSRFSGSGSGTDFTLSINSVETEDFGMYFCQQSYNWPLTFGAGTKLELK
notes: mouse IgG, kappa light chain; also called clone #16; purified antibody 16
B2: antibody 5 (antibody, V domains shown)
VH: QVTLKESGPGILQPSQTLSLTCSFSGFSLSTFGMGVGWIRQPSGKGLEWLAHIWWDDEKYYNSALKSRLTISKATSKNQAFLKIANVDTADTATYYCARISNYGSNYWYFNVWGTGTTVTVSS
VL: QVVLTQSPALMSASPGEKVTMTCSAGSSVSCMYWYQQKPGSSPRVLIYDTSNLASGVPARFTGSGSGTSYSLTISRMEAEDAASYYCQQWNSYPLTFGAGTKLELK
notes: mouse IgG, kappa light chain; also called clone #5; purified antibody 5
B3: antibody 22 (antibody, V domains shown)
VH: B2 VH with A80V
VL: B2 VL with C31Y, S84T
notes: mouse IgG, kappa light chain; also called clone #22; purified antibody 22
B4: antibody 42 (antibody, V domains shown)
VH: B2 VH with F24L, M34R, S63P, A74D, A80V, K83R, S101Q, N111D
VL: LIVLTQSPAIMSASPGEKVTMTCGATSRISYMFWYQQKPGSSPRVLIYDTSNLASGVPVRFSGSGSGTSYSLTISRVEAEDVATYYCQQWNSYPLTFGAGTKLELK
notes: mouse IgG, kappa light chain; also called clone #42; purified antibody 42
B5: antibody 3 (antibody, V domains shown)
VH: QVTLKESGPGILQPSQTLSLTCSFSGFSLTTFAMGIGWVRQPSGKGLEWLAHIWWDGEKYNNPVLKSRLTISKDTSKNQVFLRIANVDTPDTATYYCARISSIYYIIDNWGQGTSVTVSS
VL: B1 VL with S5T, D17H, F22S, G30S, H32N, Q38K, E39K, A42E, A51V
notes: mouse IgG, kappa light chain; also called clone #3; purified antibody 3
B6: antibody 34 (antibody, V domains shown)
VH: QVTLKESGPGILQPSQTLSLTCSFSGFSLSTFSLGVGWIRQSSGKGLEWLAHIWWDDEKYYNPALKSRLTISKDTSKNQVFLKIANVDAADTATYYCARAYYSKSYYALDYWGQGTSVTVSS
VL: DIQMTQSPSSLSASLGERVSLTCRASQEISGYLSWLQQKPDGTIKRLIYAASTLDSGVPKRFSGSRSGSDYSLAISSLESEDFADYYCLQYANFPFTFGSGTKLEIK
notes: mouse IgG, kappa light chain; also called clone #34; purified antibody 34
B7: antibody 43 (antibody, V domains shown)
VH: B2 VH with T3A, P42S, H52N, E58D, S63P, A74D, T75A, S101G, N111D
VL: B4 VL with L1Q, K18R, G24S, T26N, F33Y, V45L, V77M, V82A, Y86N, N91S
notes: mouse IgG, kappa light chain; also called clone #43; purified antibody 43
B8: antibody 44 (antibody, V domains shown)
VH: B2 VH with G44E, E58D, S63P, A74D, A80I, A85T, D91E, A98S, S101G, N111D
VL: QIVLTQSPAVMSASPGEKVTMTCTASSSVYYMYWYQQTPGSSPRLLIYDTSNLASGVPVRFSGSGSGTSYSLTISRMEAEDAATYYCQQWNTYPLTFGAGTKLELK
notes: mouse IgG, kappa light chain; also called clone #44; purified antibody 44

How the values were obtained:
Assay in all cases: FACS on MEF-DKO cells
[1] = target: T1, hiR2-FL-D535-T7 (deletion of D535)
[2] = target: T2, hiR2-FL-M534-T7 (deletion of M534)
hiR2-FL-L539A-T7 = target: T3, hiR2-FL-L539A-T7

Row | Binder | binding result [1] | binding result [2] | binding result (hiR2-FL-L539A-T7)
1 | B1 | no binding (tested: 3 µg/ml) | no binding (tested: 3 µg/ml) | –
2 | B2 | no binding (tested: 3 µg/ml) | no binding (tested: 3 µg/ml) | no binding (tested: 3 µg/ml)
3 | B3 | no binding (tested: 3 µg/ml) | no binding (tested: 3 µg/ml) | no binding (tested: 3 µg/ml)
4 | B4 | no binding (tested: 3 µg/ml) | no binding (tested: 3 µg/ml) | no binding (tested: 3 µg/ml)
5 | B5 | no binding (tested: 3 µg/ml) | no binding (tested: 3 µg/ml) | –
6 | B6 | no binding (tested: 3 µg/ml) | no binding (tested: 3 µg/ml) | no binding (tested: 3 µg/ml)
7 | B7 | no binding (tested: 3 µg/ml) | no binding (tested: 3 µg/ml) | no binding (tested: 3 µg/ml)
8 | B8 | no binding (tested: 3 µg/ml) | no binding (tested: 3 µg/ml) | no binding (tested: 3 µg/ml)
